Assays:
ZmALDH12 [1] = molecular target: T1, ZmALDH12 (Zea mays, UniProt A0A2H4PMI3); assay: microscale thermophoresis; format: binding
ZmALDH12 [2] = molecular target: ZmALDH12 (Zea mays, UniProt A0A2H4PMI3, C330A); assay: microscale thermophoresis; format: binding
ZmALDH12 [3] = molecular target: T1, ZmALDH12; assay: microscale thermophoresis, label-free; format: binding
[4] = substrate: N[C@@H](CCCC=O)C(=O)O; assay: NADH formation, spectrophotometry/fluorescence; format: biochemical, Zea mays; details: 3.0 mM NAD+, 100 mM pyrophosphate pH 7.5, 30 °C
[5] = substrate: O=C[C@H](O)COP(=O)(O)O; assay: NADH formation, spectrophotometry/fluorescence; format: biochemical, Zea mays; details: 3.0 mM NAD+, 100 mM pyrophosphate pH 7.5, 30 °C
[6] = substrate: NC(CCC=O)C(=O)O; assay: NADH formation, spectrophotometry/fluorescence; format: biochemical, Physcomitrium patens; details: 3.0 mM NAD+, 100 mM pyrophosphate pH 7.5, 30 °C
[7] = substrate: N[C@@H](CCCC=O)C(=O)O; assay: NADH formation, spectrophotometry/fluorescence; format: biochemical, Physcomitrium patens; details: 3.0 mM NAD+, 100 mM pyrophosphate pH 7.5, 30 °C
[8] = substrate: O=CCCCC(=O)O; assay: NADH formation, spectrophotometry/fluorescence; format: biochemical, Physcomitrium patens; details: 3.0 mM NAD+, 100 mM pyrophosphate pH 7.5, 30 °C
[9] = substrate: NC(CCC=O)C(=O)O; assay: NADH formation, spectrophotometry/fluorescence; format: biochemical, Zea mays; details: 3.0 mM NAD+, 100 mM pyrophosphate pH 7.5, 30 °C

**Q.** What does the source list for `NC(CCC=O)C(=O)O` (racemic) [GSAL]?
**A.** Kd (ZmALDH12 [1]): 166 ± 14 µM; Kd (ZmALDH12 [2]): 315 ± 48 µM

**Q.** Which Kd (ZmALDH12 [1]) does the source give for `O=CCCCC(=O)O` [GRSAL] here?
**A.** The Kd was 34 ± 11 µM.

**Q.** `NC(=O)c1ccc[n+]([C@@H]2O[C@H](COP(=O)(O)OP(=O)(O)OC[C@H]3O[C@@H](n4cnc5c(N)ncnc54)[C@H](O)[C@@H]3O)[C@@H](O)[C@H]2O)c1` [NAD^+] was tested. Which Kd (ZmALDH12 [1]) did it give?
**A.** Its Kd is 186 ± 25 µM.

**Q.** `N[C@@H](CCC(=O)O)C(=O)O` [glutamate] was tested. Which Kd (ZmALDH12 [3]) did it give?
**A.** The Kd was 3.1 ± 0.3 mM.

B1: ZmALDH12 (Zea mays) (protein)
chain: APFACVSRWLHTPSFATVSPQEVSGSSPAEVQNFVQGSWTASANWNWIVDPLNGDKFIKVAEVQGTEIKSFMESLSKCPKHGLHNPLKAPERYLMYGDISAKAAHMLGQPTVLDFFAKLIQRVSPKSYQQALAEVQVSQKFLENFCGDQVRFLARSFAVPGNHLGQRSNGYRWPYGPVAIITPFNFPLEIPLLQLMGALYMGNKPVLKVDSKVSIVMEQMIRLLHDCGLPAEDMDFINSDGAVMNKLLLEANPKMTLFTGSSRVAEKLAADLKGRVKLEDAGFDWKILGPDVQEVDYVAWVCDQDAYACSGQKCSAQSVLFMHKNWSSSGLLEKMKKLSERRKLEDLTIGPVLTVTTEAMIEHMNNLLKIRGSKVLFGGEPLANHSIPKIYGAMKPTAVFVPLEEILKSGNFELVTKEIFGPFQVVTEYSEDQLELVLEACERMNAHLTAAIVSNDPLFLQDVLGRSVNGTTYAGIRARTTGAPQNHWFGPAGDPRGAGIGTPEAIKLVWSCHREIIYDVGPVPESWALPSAT
**Q.** Which results are given for B1?
**A.** Km [4]: 173 ± 12 µM; kcat [4]: 0.04 ± 0.02 s⁻¹; kcat/Km [4]: 200 ± 20 M⁻¹ s⁻¹; Km [5]: 1860 ± 99 µM; kcat [5]: 0.4 ± 0.1 s⁻¹; kcat/Km [5]: 210 ± 20 M⁻¹ s⁻¹

B2: PpALDH12 (Physcomitrium patens) (protein)
chain: SSTLLSDHRPQSSLSFASCDADKLSEAHQYQMHNLVQGKWEQTSKSIELLDPLNGEKFISVPDTSIDEISPFVQSLRACSKSGLHNPLKNPERYLLYGDIMAKAAHLLKQPQVETFFARLIQRVAPKSFAQAVGEVTVTQKFLENFSGDQVRFLARSFVVPGNYQGQQSNGMRWPYGPVAIITPFNFPLEIPALQALGALFMGNKPILKVDSKVSIVMEQFIRLLHKCGMPPTDMDFINSDGPVMNKLLLEAEPKTTLFTGSSKVAEKLALDLKGRVKLEDAGFDWKILGPDVQNEDYVAWVCDQDAYACSGQKCSAQSILFMHENWANQNFLERLKKLASKRKLEDLTVGPVLTVTTERMLDHVKNLLAIPGARVEFGGKPLTNHTIPDVYGALEPTAVFVPLKEILRNEENFALATTEIFGPFQILTEYKHEDLPLVFEACERMHAHLTAAVVSNDVHFLQEVLSNTVNGTTYAGIRARTTGAPQNHWFGPAGDPRGAGIGTPEAIKLVWSCHREIIQDVGPIPNGWSTPQCT
**Q.** How did the Km [6] turn out when B2 was run?
**A.** Its Km is 228 ± 40 µM.

**Q.** And the kcat [6]?
**A.** Its kcat is 0.44 ± 0.05 s⁻¹.

**Q.** And the kcat/Km [6]?
**A.** The kcat/Km was 1900 ± 600 M⁻¹ s⁻¹.

**Q.** And the Km [7]?
**A.** Its Km is 211 ± 13 µM.

**Q.** And the kcat [7]?
**A.** The kcat was 0.005 ± 0.001 s⁻¹.

**Q.** And the kcat/Km [7]?
**A.** The kcat/Km was 26 ± 2 M⁻¹ s⁻¹.

**Q.** And the Km [8]?
**A.** Its Km is 82 ± 6 µM.

**Q.** What about the kcat [8] of the same molecule?
**A.** Its kcat is 0.3 ± 0.02 s⁻¹.

**Q.** What about the kcat/Km [8] of the same molecule?
**A.** The kcat/Km was 3700 ± 600 M⁻¹ s⁻¹.

B3: ZmALDH12 (Zea mays; K329A) (protein)
chain: APFACVSRWLHTPSFATVSPQEVSGSSPAEVQNFVQGSWTASANWNWIVDPLNGDKFIKVAEVQGTEIKSFMESLSKCPKHGLHNPLKAPERYLMYGDISAKAAHMLGQPTVLDFFAKLIQRVSPKSYQQALAEVQVSQKFLENFCGDQVRFLARSFAVPGNHLGQRSNGYRWPYGPVAIITPFNFPLEIPLLQLMGALYMGNKPVLKVDSKVSIVMEQMIRLLHDCGLPAEDMDFINSDGAVMNKLLLEANPKMTLFTGSSRVAEKLAADLKGRVKLEDAGFDWKILGPDVQEVDYVAWVCDQDAYACSGQACSAQSVLFMHKNWSSSGLLEKMKKLSERRKLEDLTIGPVLTVTTEAMIEHMNNLLKIRGSKVLFGGEPLANHSIPKIYGAMKPTAVFVPLEEILKSGNFELVTKEIFGPFQVVTEYSEDQLELVLEACERMNAHLTAAIVSNDPLFLQDVLGRSVNGTTYAGIRARTTGAPQNHWFGPAGDPRGAGIGTPEAIKLVWSCHREIIYDVGPVPESWALPSAT
**Q.** Which results are given for B3?
**A.** Km [9]: 958 ± 47 µM; kcat [9]: 0.26 ± 0.01 s⁻¹
